Data on one molecule can be found in patent US20200087392A1 (Novartis, published 2020).

The Kd is a measure of binding affinity in units of concentration. Read a high Kd as a looser complex.

This experiment deals with T1, human β-klotho (human, UniProt Q86Z14 52-997, limits assumed).
T1 construct: Antigen of the SET assay; also called beta-klotho
T1 sequence: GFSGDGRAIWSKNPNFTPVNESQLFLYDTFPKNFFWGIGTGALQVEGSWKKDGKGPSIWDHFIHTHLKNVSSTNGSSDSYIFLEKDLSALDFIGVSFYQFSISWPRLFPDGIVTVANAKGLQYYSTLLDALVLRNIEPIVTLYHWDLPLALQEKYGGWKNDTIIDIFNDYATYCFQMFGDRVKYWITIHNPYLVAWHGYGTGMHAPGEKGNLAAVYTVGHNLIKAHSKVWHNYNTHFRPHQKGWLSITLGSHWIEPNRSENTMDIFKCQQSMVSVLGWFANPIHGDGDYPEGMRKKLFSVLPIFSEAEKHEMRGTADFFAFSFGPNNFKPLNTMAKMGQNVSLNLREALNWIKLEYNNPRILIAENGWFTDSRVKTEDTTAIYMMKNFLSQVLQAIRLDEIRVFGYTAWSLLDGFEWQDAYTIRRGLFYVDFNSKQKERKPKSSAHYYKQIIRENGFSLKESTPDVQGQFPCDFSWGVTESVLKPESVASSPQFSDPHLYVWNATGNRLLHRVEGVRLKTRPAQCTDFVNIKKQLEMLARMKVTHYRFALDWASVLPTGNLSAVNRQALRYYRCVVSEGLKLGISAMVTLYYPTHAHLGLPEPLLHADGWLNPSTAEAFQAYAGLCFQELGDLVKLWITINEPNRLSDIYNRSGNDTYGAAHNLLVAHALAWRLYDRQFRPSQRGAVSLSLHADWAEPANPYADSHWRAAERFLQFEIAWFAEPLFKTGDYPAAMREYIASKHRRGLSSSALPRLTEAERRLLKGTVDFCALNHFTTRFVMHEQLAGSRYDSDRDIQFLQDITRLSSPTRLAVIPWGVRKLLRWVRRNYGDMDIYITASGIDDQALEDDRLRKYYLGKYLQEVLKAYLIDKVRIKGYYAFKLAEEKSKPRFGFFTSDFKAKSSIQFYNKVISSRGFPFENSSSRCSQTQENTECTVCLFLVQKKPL
As to the kind of experiment: solution equilibrium titration (SET).

B1: NOV001 (antibody, human IgG1, kappa, L234A L235A, V domains shown)
VH: QVQLVQSGAEVKKPGSSVKVSCKASGYTFTDYYINWVRQAPGQGLEWMGRIHPGSGNTYYNEKFQGRVTLTADKSTSTAYMELSSLRSEDTAVYYCAILLLRSYGMDDWGQGTTVTVSS
VL: DVVMTQTPLSLSVTPGQPASISCKSSQSIVHSSGNTYLEWYLQKPGQSPQLLIYKVSNRFSGVPDRFSGSGSGTDFTLKISRVEAEDVGVYYCFQGSHIPYTFGQGTKLEIKR
notes: also called IgG1 LALA version of NOV003
Turning to B1, the Kd is about 0.042 nM.
